The data set concerns the molecule itself. In words: SEC-MALS; Superdex 200 Increase 10/300, 0.8 ml/min; 65 µl of ~3 mg/ml or 100 μM per monomer loaded; 20 mM Tris-HCl pH 7.5, 150 mM NaCl, 5 mM βME, 3 mM NaN3; samples before preparative SEC; self-association, monomers to dimer (small tetramer peak for six isoforms). Background: Size exclusion chromatography separates by hydrodynamic size, large species first.

B1: Arabidopsis thaliana 14-3-3 omicron (natural protein, UniProt Q9S9Z8 1-252, looked up)
chain: MENERAKQVYLAKLNEQAERYDEMVEAMKKVAALDVELTIEERNLLSVGYKNVIGARRASWRILSSIEQKEESKGNEQNAKRIKDYRTKVEEELSKICYDILAVIDKHLVPFATSGESTVFYYKMKGDYFRYLAEFKSGADREEAADLSLKAYEAATSSASTELSTTHPIRLGLALNFSVFYYEILNSPERACHLAKRAFDEAIAELDSLNEDSYKDSTLIMQLLRDNLTLWTSDLEEGGEQSKGHNQQDEN
notes: 14-3-3 omicron, Arabidopsis thaliana, epsilon group; construct provided by Prof; Robert J. Ferl; source: E. coli C41(DE3), purified (IMAC, thrombin cleavage of the His6-tag, subtractive IMAC, preparative SEC; aliquots before preparative SEC for SEC-MALS)
Regarding B1, the “stoichiometry N” value worked out at 2.

Broadly, the stoichiometry N is a count of units in the complex or per binding partner.
